{"source": "patent US20240344138A1", "about": "“TARGETED THERAPIES IN CANCER” (Feng Biosciences, Inc, priority 2021, published 2024)", "molecules": {"B1": {"name": "Navixicizumab (antibody, chains of the INN, looked up, V domains shown)", "VH": "QVQLVQSGAEVKKPGASVKISCKASGYSFTAYYIHWVKQAPGQGLEWIGYISNYNRATNYNQKFKGRVTFTTDTSTSTAYMELRSLRSDDTAVYYCARDYDYDVGMDYWGQGTLVTVSS", "VL": "DIVMTQSPDSLAVSLGERATISCRASESVDNYGISFMKWFQQKPGQPPKLLIYAASNQGSGVPDRFSGSGSGTDFTLTISSLQAEDVAVYYCQQSKEVPWTFGGGTKVEIK", "VH2": "QVQLVQSGAEVKKPGASVKVSCKASGYTFTNYWMHWVRQAPGQGLEWMGDINPSNGRTSYKEKFKRRVTLSVDKSSSTAYMELSSLRSEDTAVYFCTIHYDDKYYPLMDYWGQGTLVTVSS", "VL2": "B1 VL"}, "B2": {"name": "PARPi/Navicixumab (antibody, chains of the INN, looked up, V domains shown)", "VH": "B1 VH", "VL": "B1 VL", "VH2": "B1 VH2", "VL2": "B1 VL", "modifications": "with PARP inhibitor"}, "B3": {"name": "PARPi/immune checkpoint inhibitor/Navicixumab (antibody, chains of the INN, looked up, V domains shown)", "VH": "B1 VH", "VL": "B1 VL", "VH2": "B1 VH2", "VL2": "B1 VL", "modifications": "with PARP inhibitor and checkpoint inhibitor"}, "B4": {"name": "PARPi/Immune Checkpoint Inhibitor/Navicixizumab (antibody, chains of the INN, looked up, V domains shown)", "VH": "B1 VH", "VL": "B1 VL", "VH2": "B1 VH2", "VL2": "B1 VL", "modifications": "with PARP inhibitor and checkpoint inhibitor"}, "B5": {"name": "PARPi/Immune Checkpoint Inhibitor/Navixicizumab (antibody, chains of the INN, looked up, V domains shown)", "VH": "B1 VH", "VL": "B1 VL", "VH2": "B1 VH2", "VL2": "B1 VL", "modifications": "with PARP inhibitor and checkpoint inhibitor"}}, "key": {"[1]": {"tested_on": "platinum-resistant or platinum-sensitive recurrent ovarian cancer", "experiment": "Clinical trial of PARP inhibitor and navicixizumab in PARP naive and PARP resistant cohorts, ORR by TME phenotype", "type": "in vivo, human", "description": "A clinical trial is run to determine whether ovarian cancer tumor microenvironment phenotypes correlate to clinical responses when patients are treated with a PARP inhibitor, and navicixizumab in PARP naïve patients or patients that previously progressed on PARP inhibitor. The analysis includes samples from two different cohorts (one consisting of PARP inhibitor naïve patients and one consisting of PARP resistant patients). 40 patients from each cohort are randomized to 2 different treatment arms (20 patients in each arm). Patients are randomized to receive either a PARP inhibitor in combination with navicixizumab or PARP inhibitor monotherapy (PARP naïve cohort) or PARP inhibitor in combination with navicixizumab or navicixizumab monotherapy (PARP resistant). RNA gene signatures are analyzed from tumor samples acquired before the treatments and TME phenotypes are determined. Patients are followed for clinical response.\nOvarian cancer patients are randomized to receiving a regimen of PARP inhibitor (Olaparib, Rucaparib, Niraparib, etc.) plus navicixizumab, PARP monotherapy (PARP naive) or Navicixizumab monotherapy. The combination of PARP inhibitor/Navicixizumab increases overall response rate in patients with recurrent ovarian cancer compared to navicixizumab alone in both the PARP naive and PARP resistant cohorts as shown in TABLE 35. […] Eighty (80) total patients are enrolled, 20 in each of the treatment groups across the two cohorts with equal representation across the 4 stromal phenotypes (5 in each phenotype per treatment group). The correlation between each TME phenotype is tested against clinical outcome data. In immune suppressed (IS), and angiogenic (A) patients the use of the regimen of PARPi/Navicixizumab confers benefit in comparison to patients classified to immune active (IA) and immune desert (ID) TME phenotype classes as shown in the TABLE 36."}, "[2]": {"tested_on": "platinum-resistant or platinum-sensitive recurrent triple negative breast cancer", "experiment": "Clinical trial of PARP inhibitor, immune checkpoint inhibitor and navicixizumab, ORR by TME phenotype", "type": "in vivo, human", "description": "A clinical trial is run to determine whether the triple negative breast cancer (TNBC) tumor microenvironment phenotypes correlate to clinical responses when patients are treated with a PARP inhibitor, an immune checkpoint inhibitor, and Navicixizumab after recurrence on platinum-based chemotherapy. The analysis includes samples from two different cohorts (one consisting of platinum-sensitive patients and one consisting of platinum-resistant patients). 40 patients from each cohort are randomized to 2 different treatment arms (20 patients in each arm). Patients are randomized to receive either (i) a PARP inhibitor and an immune checkpoint inhibitor or (ii) a PARP inhibitor, an immune checkpoint inhibitor and Navicixizumab. RNA gene signatures are analyzed from tumor samples acquired before the treatments and TME phenotypes are determined. Patients are followed for clinical response.\nTNBC patients are randomized to receiving a regimen of PARP inhibitor (olaparib, rucaparib, niraparib, etc.) plus an immune checkpoint inhibitor (anti-PD-(L)1—i.e., an inhibitor to PD-1 or PD-L1) therapy, or a regimen of PARP inhibitor/immune checkpoint inhibitor/Navicixizumab. The combination of PARP inhibitor/immune checkpoint inhibitor/Navicixizumab increases overall response rate in patients with TNBC compared to the regimen of PARP inhibitor/immune checkpoint inhibitor alone in both the platinum-sensitive and platinum-resistant cohorts as shown in TABLE 37. […] Eighty (80) total patients are enrolled, 20 in each of the treatment groups across the two cohorts with equal representation across the 4 stromal phenotypes (5 in each phenotype per treatment group). The correlation between each TME phenotype is tested against clinical outcome data. In immune active (IA), immune suppressed (IS), and angiogenic (A) patients the use of the regimen of PARPi/immune checkpoint inhibitor/Navicixizumab confers benefit in comparison to patients classified to immune desert (ID) TME phenotype classes as shown in the TABLE 38."}}}
{"molecule": "B1", "values": [{"measurement": "Overall response rate (ORR)", "setting": "[1]; PARP resistant cohort, n = 20 per treatment group", "value": 25, "unit": "%"}]}
{"molecule": "B2", "values": [{"measurement": "Overall response rate (ORR)", "setting": "[1]; PARP naive cohort, TME phenotype A (n = 5)", "value": 100}, {"measurement": "Overall response rate (ORR)", "setting": "[1]; PARP naive cohort, TME phenotype IA (n = 5)", "value": 40}, {"measurement": "Overall response rate (ORR)", "setting": "[1]; PARP naive cohort, TME phenotype ID (n = 5)", "value": 40}, {"measurement": "Overall response rate (ORR)", "setting": "[1]; PARP naive cohort, TME phenotype IS (n = 5)", "value": 80}, {"measurement": "Overall response rate (ORR)", "setting": "[1]; PARP resistant cohort, TME phenotype A (n = 5)", "value": 60}, {"measurement": "Overall response rate (ORR)", "setting": "[1]; PARP resistant cohort, TME phenotype IA (n = 5)", "value": 20}, {"measurement": "Overall response rate (ORR)", "setting": "[1]; PARP resistant cohort, TME phenotype ID (n = 5)", "value": 20}, {"measurement": "Overall response rate (ORR)", "setting": "[1]; PARP resistant cohort, TME phenotype IS (n = 5)", "value": 60}]}
{"molecule": "B3", "values": [{"measurement": "Overall response rate (ORR)", "setting": "[2]; Platinum-resistant cohort, TME phenotype A (n = 5)", "value": 40}, {"measurement": "Overall response rate (ORR)", "setting": "[2]; Platinum-resistant cohort, TME phenotype IA (n = 5)", "value": 60}, {"measurement": "Overall response rate (ORR)", "setting": "[2]; Platinum-resistant cohort, TME phenotype ID (n = 5)", "value": 0}, {"measurement": "Overall response rate (ORR)", "setting": "[2]; Platinum-resistant cohort, TME phenotype IS (n = 5)", "value": 80}, {"measurement": "Overall response rate (ORR)", "setting": "[2]; Platinum-sensitive cohort, TME phenotype A (n = 5)", "value": 100}, {"measurement": "Overall response rate (ORR)", "setting": "[2]; Platinum-sensitive cohort, TME phenotype IA (n = 5)", "value": 80}, {"measurement": "Overall response rate (ORR)", "setting": "[2]; Platinum-sensitive cohort, TME phenotype ID (n = 5)", "value": 60}, {"measurement": "Overall response rate (ORR)", "setting": "[2]; Platinum-sensitive cohort, TME phenotype IS (n = 5)", "value": 80}]}
{"molecule": "B4", "values": [{"measurement": "Overall response rate (ORR)", "setting": "[2]; Platinum-sensitive cohort, n = 20 per treatment group", "value": 80, "unit": "%"}]}
{"molecule": "B5", "values": [{"measurement": "Overall response rate (ORR)", "setting": "[2]; Platinum-resistant cohort, n = 20 per treatment group", "value": 45, "unit": "%"}]}
